Consider 2 proteins from paper PMC2775743, “Structural insights into the substrate tunnel of Saccharomyces cerevisiae carbonic anhydrase Nce103” (BMC Structural Biology, 2009).

Series [1] deals with the molecule itself. In words: crystal structure; Nce103ΔN13, hanging drop vapor diffusion at 16°C; 20% PEG4000, 0.1 M sodium citrate pH 5.6, 0.1 M sodium acetate, 20% ethylene glycol; two molecules in the asymmetric unit; 2.04 Å.
Series [2] concerns the molecule itself. In words: not stated; oligomeric state in solution, noted during purification (Ni2+ affinity, Superdex 75 gel filtration); how it was determined is not told. (In general: Size exclusion chromatography separates by hydrodynamic size, large species first.)

B1: Nce103ΔN13 (enzyme, S. cerevisiae, UniProt P53615 14-221, looked up)
chain: HNSNLQDILAANAKWASQMNNIQPTLFPDHNAKGQSPHTLFIGCSDSRYNENCLGVLPGEVFTWKNVANICHSEDLTLKATLEFAIICLKVNKVIICGHTDCGGIKTCLTNQREALPKVNCSHLYKYLDDIDTMYHEESQNLIHLKTQREKSHYLSHCNVKRQFNRIIENPTVQTAVQNGELQVYGLLYNVEDGLLQTVSTYTKVTPK
notes: Carbonic anhydrase Nce103 (β-class), S. cerevisiae strain S288C, ORF YNL036W, without the N-terminal 13 residues; residues His14 to Lys221; One zinc ion for each subunit; In the crystal the His tag, His14-Ser16 and Pro41-Gln48 are not seen in the density; also called truncated NCE103 without the N-terminal 13 residues; β-CA Nce103/YNL036W; source: for crystallization in 20 mM acetate buffer, pH …
The stoichiometry N is a count of units in the complex or per binding partner. In the case of B1, the “stoichiometry N” value in series [1] came out at 2.

B2: Nce103ΔN50 (enzyme, S. cerevisiae, UniProt P53615 51-221, looked up)
chain: HTLFIGCSDSRYNENCLGVLPGEVFTWKNVANICHSEDLTLKATLEFAIICLKVNKVIICGHTDCGGIKTCLTNQREALPKVNCSHLYKYLDDIDTMYHEESQNLIHLKTQREKSHYLSHCNVKRQFNRIIENPTVQTAVQNGELQVYGLLYNVEDGLLQTVSTYTKVTPK
notes: Carbonic anhydrase Nce103 (β-class), S. cerevisiae strain S288C, ORF YNL036W, residues His51-Lys221; the tag is probably N-terminal here too; also called truncated NCE103 without the N-terminal 50 residues
For the protein B2, the “stoichiometry N” value in series [2] was 2.
